Laboratory results taken from US20230126400A1.

Legend:
[1] = biological target: human MS4A4A (human) (UniProt Q96JQ5); experiment: flow cytometry (anti-mouse IgG Fc-APC) on U937 cells transfected with human MS4A4A (Plate B); untransfected U937 cells (Plate A): mean 259
[2] = biological target: cynomolgus (cyno) MS4A4A (cynomolgus); experiment: flow cytometry (anti-mouse IgG Fc-APC) on 300.19 cells transfected with cyno MS4A4A (Plate E); untransfected 300.19 cells (Plate C): mean 110
[3] = biological target: human MS4A4A (human) (UniProt Q96JQ5); experiment: flow cytometry (anti-mouse IgG Fc-APC) on 300.19 cells transfected with human MS4A4A (Plate D); untransfected 300.19 cells (Plate C): mean 110
[4] = biological target: human MS4A4A (human) (UniProt Q96JQ5); experiment: functional affinity, FACS titration on stably transfected 300.19 cells
[5] = biological target: human MS4A4A (human) (UniProt Q96JQ5); experiment: flow cytometry (anti-mouse IgG Fc-APC) on U937 cells transfected with human MS4A4A (Plate B); untransfected U937 cells (Plate A): mean 387
[6] = biological target: human MS4A4A-GFP 4A.Ala.35 (ECL2 deletion of GNS) (human) (UniProt Q96JQ5); experiment: FACS, HEK293T
[7] = biological target: cynomolgus (cyno) MS4A4A (cynomolgus); experiment: flow cytometry (anti-mouse IgG Fc-APC) on HEK293 cells transiently transfected with cyno MS4A4A (cy4A_293); 293 parental cells: mean 131
[8] = biological target: human MS4A4A (human) (UniProt Q96JQ5); experiment: flow cytometry (anti-mouse IgG Fc-APC) on HEK293 cells transiently transfected with human MS4A4A (h4A_293); 293 parental cells: mean 131
[9] = biological target: cynomolgus (cyno) MS4A4A (cynomolgus); experiment: flow cytometry (anti-mouse IgG Fc-APC) on 300.19 cells transfected with cyno MS4A4A (Plate E); untransfected 300.19 cells (Plate C): mean 111; no primary antibody on Plate E: 122
[10] = biological target: human MS4A4A (human) (UniProt Q96JQ5); experiment: flow cytometry (anti-mouse IgG Fc-APC) on U937 cells transfected with human MS4A4A (Plate B); untransfected U937 cells (Plate A): mean 240; no primary antibody on Plate B: 246
[11] = biological target: human MS4A4A (human) (UniProt Q96JQ5); experiment: flow cytometry (anti-mouse IgG Fc-APC) on 300.19 cells transfected with human MS4A4A (Plate D); untransfected 300.19 cells (Plate C): mean 111; no primary antibody on Plate D: 177
[12] = biological target: cynomolgus (cyno) MS4A4A (cynomolgus); experiment: flow cytometry (anti-mouse IgG Fc-APC) on 300.19 cells transfected with cyno MS4A4A (Plate E); untransfected 300.19 cells (Plate C): mean 106; no primary antibody on Plate E: 122
[13] = biological target: human MS4A4A (human) (UniProt Q96JQ5); experiment: flow cytometry (anti-mouse IgG Fc-APC) on U937 cells transfected with human MS4A4A (Plate B); untransfected U937 cells (Plate A): mean 229; no primary antibody on Plate B: 246
[14] = biological target: human MS4A4A (human) (UniProt Q96JQ5); experiment: flow cytometry (anti-mouse IgG Fc-APC) on 300.19 cells transfected with human MS4A4A (Plate D); untransfected 300.19 cells (Plate C): mean 106; no primary antibody on Plate D: 177
[15] = biological target: human MS4A4A (human) (UniProt Q96JQ5); experiment: flow cytometry (anti-mouse IgG Fc-APC) on U937 cells transfected with human MS4A4A (Plate B); untransfected U937 cells (Plate A): mean 247; no primary antibody on Plate B: 246

anti-MS4A4A antibody 3F2 (Millipore) showed a Mean : APC-A [1] of 14300, a Mean : APC-A [2] of 128 and a Mean : APC-A [3] of 21100. It also gave a Kd [4] of 9.5 nM.
Work on anti-MS4A4A antibody 4H2 (Kerafast) yielded a Kd [4] of 10 nM.
Substance anti-MS4A4A antibody 5C12 (BioLegend) has a Mean : APC-A [5] of 15000, a % binding compared to wildtype MS4A4A [6] of 1% and a Mean : APC-A [7] of 158. The Mean : APC-A [2] was 129, the Mean : APC-A [3] was 19500 and the Mean : APC-A [8] was 7160. The Kd [4] was 27 nM.
msIgG1 Isotype Ctrl (antibody) gave a Mean : APC-A [9] of 116, a Mean : APC-A [10] of 248 and a Mean : APC-A [11] of 181.
With msIgG2a Isotype Ctrl (antibody) the Mean : APC-A [12] was 109, the Mean : APC-A [13] was 243 and the Mean : APC-A [14] was 155.
In the case of msIgG2b Isotype Ctrl (antibody), the Mean : APC-A [9] is reported as 107, the Mean : APC-A [15] is reported as 234 and the Mean : APC-A [11] is reported as 155.
